# According to the RNAGym collection of RNA variant scans (doi:10.7554/elife.90254):
# B1: LINE1-full (parent)
# chain: UACGUAGGUGGUUUUCCCCUGAUAGUGCUAAGGGGGCCUGGAAGUUUGGACUGGGCAGAGCUCAACACAGCGUGGCAAAGUGGCUGUGGCUAGACUGCCUCUCUGGAUUCCUCGUCACUCAGCAGGGCAUCUCUGAGAGAAAUGCC
# Variants of: B1
# Assay: self-cleavage, relative activity (ratio to wild type); higher = more cleavage; in vitro, sequencing; the parent is a self-cleaving ribozyme
row,Variant,self-cleavage
1,UACGUAGGUGGUUUUCCCCUGAUAGUGCUAAGGGGGCCUGGAAGUUUGGACUGGGCAGAGCGCAACACAGCGUGGCAAAGUGGCUGUGGCUAGACUGCCUCUCUGGAUUCCUCGUCACUCAGCAGGGCAUCUCUGGGAGAAAUGCC [U62G A136G],0
2,UACGUAGGUGGUUUACCCCUGAUAGUGCUAAGGGGGCCUGGAAGUUUGGACUGGGCAGAGCUCAACACAGCGUGGCAAAGUGGCUGUGGCUAGACUGCCUCUCUGGAUUCCUCGUCAUUCAGCAGGGCAUCUCUGAGAGAAAUGCC [U15A C118U],0.49
3,UACGUAGGUGGUUUUCCCCUGAUAGUGCUAAGGGGGCCUGGAAGUUUGGACUGGGCAGAGCUCAUCACAGCGUGGCAAAGUGGCUGUGGCUAGACUGCCUCUCAGGAUUCCUCGUCACUCAGCAGGGCAUCUCUGAGAGAAAUGCC [A65U U104A],0.14
4,UACGUAGGUGGUUUUCCCCUGAUAGUGCUAAGGGGGCCUGGAAGUUUGGACUGGGCAGAGCUCAACACAGCGUGGCAAAGUGGCUGUGGCUAGACUGCCUCUCUGGACUCCUCGUCACUCAGCAGGGCGUCUCUGAGAGAAAUGCC [U108C A129G],1.57
5,UACGUAGGUGGUUUUCCCCUGAUAGUGCUAAGGGGGCCUGGAAGUUUGGACUGGGCAGAGCUCAACACAGCGUGGCAAAGUGGCUGUGGCUAGACUGCCUCUCUGGAUUCCUCGUCAAUCAGCAGGGCAUCUCUGAGUGAAAUGCC [C118A A138U],1.47
6,UACGUAGGUGGUUUUCCCCUGAUAGUGCUAAGGGGACCUGGAAGUUUGGACUGGGCAGAGCUCAACACAGCGUGGCAAAGUGGCUGUGGCUAGACUGCCUCUCUGGAUUCCUCGUCACUCAGCAGGGCAUCUCUGAGAGGAAUGCC [G36A A140G],1.3
7,UACGUAGGUGGUUUUCCCUUGAUAGUGCUAAGGGGGCCUGGAAGUUUGGACUGGGCAGAGCUCAACACAGCGUGGCAAAGAGGCUGUGGCUAGACUGCCUCUCUGGAUUCCUCGUCACUCAGCAGGGCAUCUCUGAGAGAAAUGCC [C19U U81A],1.05
8,UACGUAGGUGGUUUUCCCCUGAUAGUGCUAAGGGGGCCUGGAAGUUUGGACUGGGCAGAGCUCAACACAGCGUGGCAAGGUGGCUGUGGCUAGACUGCCUCUCUGGAUUCCUCGUCGCUCAGCAGGGCAUCUCUGAGAGAAAUGCC [A79G A117G],1.27
9,UACGUAGGUGGUUUUCCCCUGAUAGUGCUAAGGGGGCCUGGAAGUUUGGACUGGGCAGAGCUCAACACAGCGUGGCAAAGUGGCUGUGGCUAGACUGCCUCUCUGGAUUCCUUGUCACUCAGCAGGGCAUCUCCGAGAGAAAUGCC [C113U U134C],0.97
10,UACGUAGGCGGUUUUCCCCUGAUAGUGCUAAGGGGGCCUGGAAGUUUGGGCUGGGCAGAGCUCAACACAGCGUGGCAAAGUGGCUGUGGCUAGACUGCCUCUCUGGAUUCCUCGUCACUCAGCAGGGCAUCUCUGAGAGAAAUGCC [U9C A50G],1
11,UACGUAGGUGGUUUUCCCCCGAUAGUGCUAAGGGGGCCUGGAAGUUUGGACUGGGCAGAGCUCAACACAGCGUGGCAAAGUGGCUGUGGCUAGACUGCCUCUCUGGUUUCCUCGUCACUCAGCAGGGCAUCUCUGAGAGAAAUGCC [U20C A107U],1.34
12,UACGUAGGUGGUUUUCCCCUGAUAGUGCUAAGGGGGCCUGGAAGUUUGGACUGGGCAGAGCUCAACACAGCGUGGCAAAGUGGCUGUGGCUAGACUACCUCUCUGGGUUCCUCGUCACUCAGCAGGGCAUCUCUGAGAGAAAUGCC [G97A A107G],0.13
13,UACGUAGGUGGUUUCCCCCUGAUAGUGCUAAGGGGGCCUGGAAGUUUGGACUGGGCAGAGCUCAACUCAGCGUGGCAAAGUGGCUGUGGCUAGACUGCCUCUCUGGAUUCCUCGUCACUCAGCAGGGCAUCUCUGAGAGAAAUGCC [U15C A67U],0.17
14,UACGUAGGUGGUUUUCCCCUGAUAGUGCUAAGUGGGCCUGGAAGUUUGGACUGGGCAGAGCUCAACACAGCGUGGCAAAGUGGCUGUGGCUAGACUGCCUCUCUGGAUUCCUCGUCACUCAGCAGGGCAUCUCAGAGAGAAAUGCC [G33U U134A],1.24
15,UACGUAGGUGGUUUUCCCCUGAUAGUGCUAAGGGGGCCUGGAAGUUUGGAUUGGGCAGAGCUCAACACAGCGUGGCAAGGUGGCUGUGGCUAGACUGCCUCUCUGGAUUCCUCGUCACUCAGCAGGGCAUCUCUGAGAGAAAUGCC [C51U A79G],1.53
16,UACGUAGGUGGUUUUCCCCUGAUAGUGCUAAGGGGGCCUGGAAGUUUGGACUGGGCAGAGCUCAACACAGCGAGGCAAAGUGGCUGUGGCUUGACUGCCUCUCUGGAUUCCUCGUCACUCAGCAGGGCAUCUCUGAGAGAAAUGCC [U73A A92U],0.8
17,UACGUAGGUGGUUUUCCCCUGAUCGUGCUAAGGGGGCCUGGAAGUUUGGACUGGGCAGAGCUCAACGCAGCGUGGCAAAGUGGCUGUGGCUAGACUGCCUCUCUGGAUUCCUCGUCACUCAGCAGGGCAUCUCUGAGAGAAAUGCC [A24C A67G],0.42
18,UACGUAGGUGGUUUUCCCCUGAUAGUGCUAAGGGGGCCUGGAAGUUCGGACUGGGCAGAGCUCAACACAGCGUGGCAAAGUGGCUGCGGCUAGACUGCCUCUCUGGAUUCCUCGUCACUCAGCAGGGCAUCUCUGAGAGAAAUGCC [U47C U87C],0.48
19,UACGUAGGUGGUUACCCCCUGAUAGUGCUAAGGGGGCCUGGAAGUUUGGACUGGGCAGAGCUCAACACAGCGUGGCAAAGUGGCUGUGGCUAGACUGCCUCUCUGGAUUCCUCGUCACUCAGCAGGGCAUCUCUGAGAGAAAUGCC [U14A U15C],1.02
20,UACGUAGGUGGUUUUCCCCUGAUAGUGCUAAGGGGGCCUGGAAGUUUGGACUGGGCAGAGCUCAACCCAGCGUGGCAAAGUGGCUGUGGCUGGACUGCCUCUCUGGAUUCCUCGUCACUCAGCAGGGCAUCUCUGAGAGAAAUGCC [A67C A92G],0.05

row,Variant,self-cleavage
1,UACGUGGGUGGUUUUCCCCUGAUAGUGCUAAGGGGGCCUGGAAGUUUGGACUGGGCAGAGCUCAACACAGCGUGGCAAAGUGGCUGUGGCUAGACUGCCUCUCUGGAUUCCUCGUCACUCAACAGGGCAUCUCUGAGAGAAAUGCC [A6G G122A],0.55
2,UACGUAGGUGGUUUCCCCCUGAUAGUGCUAAGGGGGCCUGGAAGUUUGGACUGGGCAGAGCUCAACACAGCGUGGCAAAGUGGCUGUGGCUAGACUGCCUCUCUGGAUUCCUCGUCCCUCAGCAGGGCAUCUCUGAGAGAAAUGCC [U15C A117C],2.07
3,UACGUAGGUGGUUUUCCCCUGAUAGUGCUAAGGGGGCCUGGAAGUUUGGACUGGGCAGAGCUCAACACAGCGUGGCAAAGCGGCUGUGGCUAGACUGCCUCUCUGGAUUCCUCGUCUCUCAGCAGGGCAUCUCUGAGAGAAAUGCC [U81C A117U],1.56
4,UACGUAGGUGGUUUUCCCCUGAUAGUGCUGAGGGGGCCUGGAAGUUUGGACUGGGCAGAGCUCAACACAGCGUGGCAAAGUGGCUGCGGCUAGACUGCCUCUCUGGAUUCCUCGUCACUCAGCAGGGCAUCUCUGAGAGAAAUGCC [A30G U87C],0.11
5,UACGUAGGUGGUUUUCCCCUGAUAGUGCUAAGGGGGCCUGGAAGUUUGGACUGGGCAGAGCUCAACACAGCGUGGCAAAGUGGCUGCGGCUAGACUGCCUCUCUGGAUUCCUCGUCACUCAGCAGGGCUUCUCUGAGAGAAAUGCC [U87C A129U],0.15
6,UACGUAGGUGGUUUUCCCCUGAUAGUGCUAAGGGGGCCUGGAAGUUUGGACUGGGCAGAGCUCAACACAGCGUGGCAAAGAGGCUGUGGCUAGACUGCCUCUCUGGAUUCCUCGUCACUCAGCUGGGCAUCUCUGAGAGAAAUGCC [U81A A124U],1.78
7,UACGUAGGUGGUUUUCCCCUGACAGUGCUAAGGGGGCCUGGAAGUUUGGACUGGGCAGAGCUCAACACAGCGUGGCAUAGUGGCUGUGGCUAGACUGCCUCUCUGGAUUCCUCGUCACUCAGCAGGGCAUCUCUGAGAGAAAUGCC [U23C A78U],2.06
8,UACGUAGGUGGUUUUCCCCUGAUAGUGCUAAGGGGGCCUGGAAGUUUGGACUGGGCAGAGCUCAACACAGCGUGGCAAAGUGACUGUGGCUAGACUGCCUCUCUGGAUUCCUCGUCACUCAGCUGGGCAUCUCUGAGAGAAAUGCC [G83A A124U],0.79
9,UACGUAGGUGGUUUUCCCCUGAUAGUGCUAAGGGGGCCUGGAAGUUUGGACUGGGCAGAGCUCAACACAGCGUGGCAAAGUGGCUGUGGCUAGACUGCCUCUCUGGAUUCCUCGUCACUCAGCAGGGCUUCUCUGAGAGAGAUGCC [A129U A141G],1.34
10,UACGUAGGUGGUUUUCCCCUGAUAGUGCUAAGGGGGCCUGGAAGUUUGGACUGGGCAGAGCUCAACACAGCGUGGCAAAGUGGCUGUGGCUAGACAGCCUCUCUGGAUUCCUCGUCACUCAGCAGGGCAUCUCUGAGAGAAAUGAC [U96A C145A],0.06
11,UACGUAGGAGGUUUUCCCCUGAUAGUGCUAAGGGGGCCUGGAAGUUUGGACUGGGCAGAGCUCAACACAGCGUGGCAAAGUGGCUGUGGCUAGACUGUCUCUCUGGAUUCCUCGUCACUCAGCAGGGCAUCUCUGAGAGAAAUGCC [U9A C98U],0.28
12,UACGUAGGUGGUUUUCCCCUGAUAGUGCUAAGGGGGCCUGGAGGUUUGGACUGGGCAGAGCUCAACACAGCGUGGCAAAGUGGCUGUGGCUAGACUGCCUCUCUGGAUUCCUCGUCACUCAGCAGGGCAACUCUGAGAGAAAUGCC [A43G U130A],1.51
13,UACGUAGGUGGUUAUCCCCUGAUAGUGCUAAGGGGGCCUGGAAGUUUGGACUGGGCAGAGCUCAACACAGCGUGGCAAAGUGGCUGUGGCUAGACGGCCUCUCUGGAUUCCUCGUCACUCAGCAGGGCAUCUCUGAGAGAAAUGCC [U14A U96G],0
14,UACGUAUGUGGUUUUCCCCUGAUAGUGCUAAGGGGGCCUGGAAGUUUGGACUGGGCAGAGCUCAACACAGCGUGGCAAAGUGGCUGUGGCUAGACUGCCUCUCUGGAUUCCUCGUCACUCAGGAGGGCAUCUCUGAGAGAAAUGCC [G7U C123G],1.13
15,UACGUAGGUGGUUUUCCCCUGAUAGUGCUAAGGGGGCCUGGUAGUUUGGACUAGGCAGAGCUCAACACAGCGUGGCAAAGUGGCUGUGGCUAGACUGCCUCUCUGGAUUCCUCGUCACUCAGCAGGGCAUCUCUGAGAGAAAUGCC [A42U G53A],1.72
16,UACGUAGGUGGUUUUCCCCUGAUAGUGCUAAGGGGGCCUGGAAGUUUGGACUGGGCAGAGCUCAACACAGCGUGGCAAAGUGGCUGUGGCUAGACUGCCUCUCUGGAUUCCUCGUCACUCAGCCGGGCAUCUCUGAUAGAAAUGCC [A124C G137U],0.75
17,UACGUAGGUGGUCUUCCCCUGAUAGUGCUAAGGGGGCCUGGAAAUUUGGACUGGGCAGAGCUCAACACAGCGUGGCAAAGUGGCUGUGGCUAGACUGCCUCUCUGGAUUCCUCGUCACUCAGCAGGGCAUCUCUGAGAGAAAUGCC [U13C G44A],0.75
18,UAUGUAGGUGGUUUUCCCCUGAUAGUGCUAAGGGGGCCUGGGAGUUUGGACUGGGCAGAGCUCAACACAGCGUGGCAAAGUGGCUGUGGCUAGACUGCCUCUCUGGAUUCCUCGUCACUCAGCAGGGCAUCUCUGAGAGAAAUGCC [C3U A42G],1.22
19,UACGUAGGUGGUUUUCCCCUGAUAGUGCUAAGGGGGCCUGGAAGUUUGGACUGGGCAGAGCUCAACACAGCGUGGCAAAGUGGCUGUGGCUAGACUGCAUCUCUGGAUUCCUCGUCACUCAGCAGGGCAUCUCUGAGAGAAAAGCC [C99A U143A],0.84
